Source: article PMC7785020, “A unique hormonal recognition feature of the human glucagon-like peptide-2 receptor” (Cell Research, 2020)

Assays:
[1] = molecular target: T1, GLP-2R mutant ECL1 (poly-alanine) (Homo sapiens, UniProt O95838, D244A/DELINS236-257AAAAAAAAAAAAAAAAAAAAAA/E246A/E255A/G248A/K241A/L253A/M250A/M256A/N237A/N245A/N247A/P243A/R242A/S238A/S240A/S251A/S254A/S257A/W249A/Y236A/Y239A/Y252A); assay: radioligand competition binding, ECL1 (poly-alanine); settings: COS-7, ECL1 (residues 236–257) substituted by poly-alanine; [^125I]GLP-2(1–33, M10Y) 10–15 pM, 4 h, 4 °C; mean ± SEM, n ≥ 3 in duplicate
T1 construct: WT (1–553); expressed in transfected cells; host or cells: COS-7
Experimental: A stepwise oxidation reaction was performed by addition of 6 aliquots of 5 µL ChloramineT (30 µL/mL) with a 1-min interval during constant stirring. The reaction was terminated by the addition of 400 µL phase A (0.1% trifluoracetic acid) before being fractionated into 1 mL volume by reverse-phase high-performance liquid chromatography (RP-HPLC, Waters 600 SimiPrep system) on a C18 column. The iodinated protein was […] by increasing concentrations of phase B (Acetonitrile + 0.1% TFA) and tested for competitive binding ability.
One day before transfection, the COS-7 cells were seeded in 75 cm^2 culture flasks (3 million cells/flask) in DMEM, containing 3.9 g/L NaHCO3 and supplemented with 10% FBS, 1% L-glutamine, 180 units/mL penicillin and 45 µg/mL streptomycin. […] Following 24-h incubation, the cells were transferred to Costa® microtiter plates (150,000 cells/well, PerkinElmer) to achieve a 5%–10% specific binding. Forty-eight hours after transfection, the cells were washed twice in binding buffer (50 mM HEPES, pH 7.4, supplemented with 1 mM CaCl2, 5 mM MgCl2 and 0.5% (w/v) BSA) and incubated for 15 min at 4 °C. […] The cells were then washed twice in binding buffer (4 °C), lysed and counted for radioactivity using a Wallac Gamma Counter (PerkinElmer).

[2] = molecular target: GLP-2R D244^ECL1A (human) (UniProt O95838); assay: radioligand binding; competition on transiently transfected COS-7 cells: unlabeled GLP-2(1–33) 0.1 nM to 1 μM against 10–15 pM [125I]GLP-2(1–33, M10Y); 4 h, 4 °C; 50 mM HEPES pH 7.4, 1 mM CaCl2, 5 mM MgCl2, 0.5% BSA; three-parameter logistic fit
GLP-2R ECL1 (GLP-1R) = GLP-2R ECL1 (GLP-1R) (UniProt O95838); assay: as above
[3] = molecular target: GLP-2R ECL1 (poly-alanine) (human) (UniProt O95838); assay: as above
[4] = molecular target: GLP-2R H268^3.37A (human) (UniProt O95838); assay: as above
[5] = molecular target: GLP-2R K414^7.35 A (human) (UniProt O95838); assay: as above
[6] = molecular target: GLP-2R N334^ECL2 A (human) (UniProt O95838); assay: as above
[7] = molecular target: GLP-2R R242^ECL1A (human) (UniProt O95838); assay: as above
[8] = molecular target: GLP-2R Y182^1.43A (human) (UniProt O95838); assay: as above
[9] = molecular target: GLP-2R Y252^ECL1A (human) (UniProt O95838); assay: as above
Chain of GLP-2R Y252^ECL1A (human) (O95838 whole entry Y252A): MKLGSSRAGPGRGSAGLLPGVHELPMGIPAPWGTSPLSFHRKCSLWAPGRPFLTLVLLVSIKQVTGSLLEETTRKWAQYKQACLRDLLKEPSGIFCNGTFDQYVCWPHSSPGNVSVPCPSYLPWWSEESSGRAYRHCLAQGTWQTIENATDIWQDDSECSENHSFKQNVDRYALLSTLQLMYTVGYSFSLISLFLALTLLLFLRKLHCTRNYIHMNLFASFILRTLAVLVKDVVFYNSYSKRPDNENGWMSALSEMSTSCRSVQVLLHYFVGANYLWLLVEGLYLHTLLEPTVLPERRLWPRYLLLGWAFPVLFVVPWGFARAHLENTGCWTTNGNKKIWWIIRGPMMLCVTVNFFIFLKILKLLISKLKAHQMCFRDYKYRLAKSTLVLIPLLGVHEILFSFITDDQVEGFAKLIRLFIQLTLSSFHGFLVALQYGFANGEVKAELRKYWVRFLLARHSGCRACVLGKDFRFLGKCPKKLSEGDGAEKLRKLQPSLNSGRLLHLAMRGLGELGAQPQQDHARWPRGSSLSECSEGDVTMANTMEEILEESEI

Chain of GLP-2R R242^ECL1A (human) (O95838 whole entry R242A): as the sequence (O95838 whole entry Y252A) above, with R242A, A252Y counted along it
Chain of GLP-2R ECL1 (poly-alanine) (human) (O95838 whole entry): as the sequence (O95838 whole entry Y252A) above, with A252Y counted along it
Chain of GLP-2R ECL1 (GLP-1R) (O95838 whole entry): as the sequence (O95838 whole entry Y252A) above, with A252Y counted along it
Chain of GLP-2R K414^7.35 A (human) (O95838 whole entry K414A): as the sequence (O95838 whole entry Y252A) above, with A252Y, K414A counted along it
Chain of GLP-2R Y182^1.43A (human) (O95838 whole entry Y182A): as the sequence (O95838 whole entry Y252A) above, with Y182A, A252Y counted along it
Chain of GLP-2R D244^ECL1A (human) (O95838 whole entry D244A): as the sequence (O95838 whole entry Y252A) above, with D244A, A252Y counted along it
Chain of GLP-2R H268^3.37A (human) (O95838 whole entry H268A): as the sequence (O95838 whole entry Y252A) above, with A252Y, H268A counted along it
Chain of GLP-2R N334^ECL2 A (human) (O95838 whole entry N334A): as the sequence (O95838 whole entry Y252A) above, with A252Y, N334A counted along it

Row | Compound | % Binding of WT [1] | % Binding of WT [2] | % Binding of WT (GLP-2R ECL1 (GLP-1R)) | % Binding of WT [3] | % Binding of WT [4] | % Binding of WT [5] | % Binding of WT [6] | % Binding of WT [7] | % Binding of WT [8] | % Binding of WT [9]
1 | CC[C@H](C)[C@H](NC(=O)[C@H](Cc1ccccc1)NC(=O)[C@H](CC(=O)O)NC(=O)[C@H](CCCNC(=N)N)NC(=O)[C@H](C)NC(=O)[C@H](C)NC(=O)[C@H](CC(C)C)NC(=O)[C@H](CC(N)=O)NC(=O)[C@H](CC(=O)O)NC(=O)[C@H](CC(C)C)NC(=O)[C@@H](NC(=O)[C@@H](NC(=O)[C@H](CC(N)=O)NC(=O)[C@H](CCSC)NC(=O)[C@H](CCC(=O)O)NC(=O)[C@H](CC(=O)O)NC(=O)[C@H](CO)NC(=O)[C@H](Cc1ccccc1)NC(=O)[C@H](CO)NC(=O)CNC(=O)[C@H](CC(=O)O)NC(=O)[C@H](C)NC(=O)[C@@H](N)Cc1c[nH]cn1)[C@@H](C)O)[C@@H](C)CC)C(=O)N[C@@H](CC(N)=O)C(=O)N[C@@H](Cc1c[nH]c2ccccc12)C(=O)N[C@@H](CC(C)C)C(=O)N[C@H](C(=O)N[C@@H](CCC(N)=O)C(=O)N[C@H](C(=O)N[C@@H](CCCCN)C(=O)N[C@H](C(=O)N[C@H](C(=O)N[C@@H](CC(=O)O)C(=O)O)[C@@H](C)O)[C@@H](C)CC)[C@@H](C)O)[C@@H](C)CC [Human GLP-2 (1–33)] | 3.0 ± 1.1 % | – | – | – | – | – | – | – | – | –
2 | [^125I]GLP-2(1–33, M10Y) (peptide) | – | 69.1% | 3.4% | 3% | 2.1% | 15.2% | 2.4% | 4.2% | 3.4% | 8.3%
